# Molecular target: AP2M (UniProt P84091)
# Assay: cell-free ELISA, antibody-captured AP2M, biotinylated peptide
# Conditions: reference: unphosphorylated control peptide; sites Y816
substance,measurement,value
"TRKB (C-terminal peptide) C-terminus, last 26 aa (from UniProt Q63604) pY816 peptide",binding against the reference,stronger
